Assay results as given in paper PMC314469, “Protein Interaction Networks by Proteome Peptide Scanning” (PLoS Biology, 2004).

Key:
[1] = target: T1, amphyphisin SH3 (AMPH_HUMAN), P49418; test: SPOT array
T1 chain: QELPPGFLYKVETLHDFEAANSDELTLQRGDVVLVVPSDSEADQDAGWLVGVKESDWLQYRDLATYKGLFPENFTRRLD

[2] = target: endophilin SH3 (SH3G2_HUMAN), Q99962; test: SPOT array

Binder | normalised SPOT signal, Boehringer light units (BLU); mean over the file's lines of this peptide [1] | normalised SPOT signal, Boehringer light units (BLU); mean over the file's lines of this peptide [2]
SASGIKRPMASEVP [Q99754 28-41] | 17.6 | 81.2
SAVVLKRPEILTDE [Q06055 26-39] | 42.7 | 38.4
RYWAISRPFRYKRK [P21918 138-151] | 1070 | 417
SAKELRRPPPRSPQ [Q9NPN8 118-131] | 33.8 | 116
AWARPPKPPTFGEF [Q9Y3X0 319-333] | 21.8 | 716
AWQQLRRPEASETL [Q9BTX9 18-31] | 29.3 | 15.9
AVSAPKRPRVAPLQ [Q92817 837-850] | 59 | 240
RYLAISRPLRARVL [O43193 136-149] | 1320 | 943
RVPIPPRPTRPHVQ [Q07912 741-754] | 9630 | 19700
SDREPTRPPRPILQ [Q9NQ53 86-99] | 3890 | 52.9
SSRAPPRPAKTTDP [Q9P2Q1 364-377] | 378 | 279
SSQRPGRPARVALP [P98161 2194-2207] | 2220 | 13500
SSTPPPRPPVLEEW [Q9UL65 458-472] | 29.8 | 110
SALRPKRPETPKQT [Q9UIG2 1726-1739] | 588 | 723
SSGGFRRPEELGRV [P09529 57-70] | 41.8 | 11.4
SASEFDRPLRPIVV [O76074 102-115] | 131 | 54
RVPIPPRPVKPDYR [Q9UD05 286-299] | 646 | 6030
SAPPPPRPPEEPAP [Q96BQ9 4-18] | 85.5 | 65.5
SSKIFRRPSLPSIS [Q13370 310-323] | 12.2 | 40.4
SEPHIKRPMNAFMV [Q9BXQ5 597-610] | 32 | 63.7
SAGRPKRPHARRAL [Q14764 501-514] | 24.8 | 702

Binder | normalised SPOT signal, Boehringer light units (BLU); mean over the file's lines of this peptide [1] | normalised SPOT signal, Boehringer light units (BLU); mean over the file's lines of this peptide [2]
SAHTPGRPPRVTKD [Q9UGB8 794-807] | 1950 | 268
SAPPPQRPFRVSDH [Q9UHD4 30-43] | 4530 | 5270
RYLILKRPGFQEHD [Q9NP17 122-135] | 23.9 | 228
SAGKFKRPIIAGME [P21453 335-348] | 42.5 | 46.1
SAPGPRRPAPALLA [Q96DL6 316-329] | 412 | 3420
SEAAPRRPEATAAP [Q9H677 423-436] | 26.1 | 16.1
SAPSPARPARTQGP [Q9NPI5 198-211] | 4310 | 4590
AVWSPRRPTATRDP [Q8WU34 71-84] | 36.2 | 97.9
SSNFPRRPDSGDVT [Q9BYH1 392-405] | 29.9 | 67.7
SEGSLTRPKKAIPP [O14810 90-103] | 0 | 68.4
SSKNIYRPDKFLQS [P28907 274-287] | 34 | 63.6
SSFIPKRPIPTIKD [Q12882 910-923] | 17.6 | 514
RVSWIRRPPGKALE [P01814 35-48] | 15 | 326
SDSKPKRPQPSREI [Q96JP2 1105-1118] | 13.6 | 44.6
SDFSPSKPPSGPGK [Q9BZH6 185-199] | 52 | 63.8
SFAYPNRPDRPVLK [Q03519 474-487] | 1280 | 245
RYLGITRPHKMLTT [Q99412 18-31] | 102 | 231
SESRIRRPMNAFMV [Q9BT81 41-54] | 0 | 32.9
SEDDFYRPSREQPL [Q9Y4G2 445-458] | 142 | 92.5
RWKEPKRPRPLKLS [Q92536 412-425] | 56.9 | 419
SEDPLKRPVVYVKG [Q9ULT6 127-140] | 21.3 | 58.8
